The source of these data is patent US20260151499A1 (TSINGHUA UNIVERSITY, published 2026).

Numbering of substitutions follows the chain as printed. Where only a bound is given, the exact number is not on record here.

Experiment [1] has as its target T1, CD73 protein (UniProt P21589 27-549).
T1 construct: also called CD73-biotin
T1 sequence (looked up): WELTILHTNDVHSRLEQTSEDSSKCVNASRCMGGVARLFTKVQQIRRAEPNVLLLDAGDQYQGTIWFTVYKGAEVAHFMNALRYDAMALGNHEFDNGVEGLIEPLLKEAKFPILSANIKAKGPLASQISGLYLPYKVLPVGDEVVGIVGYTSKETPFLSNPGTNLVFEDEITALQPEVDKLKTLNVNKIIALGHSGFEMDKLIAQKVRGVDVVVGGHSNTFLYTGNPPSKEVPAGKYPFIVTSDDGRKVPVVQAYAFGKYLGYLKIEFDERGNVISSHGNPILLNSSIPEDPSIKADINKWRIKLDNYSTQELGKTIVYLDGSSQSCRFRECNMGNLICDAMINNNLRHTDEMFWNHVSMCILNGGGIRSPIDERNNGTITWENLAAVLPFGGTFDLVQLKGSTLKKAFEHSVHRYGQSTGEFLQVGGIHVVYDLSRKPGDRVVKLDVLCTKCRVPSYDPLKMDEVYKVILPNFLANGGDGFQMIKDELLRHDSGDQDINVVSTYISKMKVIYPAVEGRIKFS
As to the kind of experiment: Octet BLI; Ab-BN3 on protein A sensors, CD73 in solution.

Experiment [2] concerns the target T1, CD73 protein. As to the kind of experiment: cell-based or functional assay.
In another experiment the target is NaV1.2 (UniProt Q99250 1-2005). As to the kind of experiment: cell-based or functional assay.
The target in the next experiment is NaV1.7 (UniProt Q15858 1-1988). As to the kind of experiment: cell-based or functional assay.
Experiment [3] concerns the target T1, CD73 protein. As to the kind of experiment: cell-based or functional assay. This is another data set of the same source.

NaV1.2, sequence (Q99250 whole entry): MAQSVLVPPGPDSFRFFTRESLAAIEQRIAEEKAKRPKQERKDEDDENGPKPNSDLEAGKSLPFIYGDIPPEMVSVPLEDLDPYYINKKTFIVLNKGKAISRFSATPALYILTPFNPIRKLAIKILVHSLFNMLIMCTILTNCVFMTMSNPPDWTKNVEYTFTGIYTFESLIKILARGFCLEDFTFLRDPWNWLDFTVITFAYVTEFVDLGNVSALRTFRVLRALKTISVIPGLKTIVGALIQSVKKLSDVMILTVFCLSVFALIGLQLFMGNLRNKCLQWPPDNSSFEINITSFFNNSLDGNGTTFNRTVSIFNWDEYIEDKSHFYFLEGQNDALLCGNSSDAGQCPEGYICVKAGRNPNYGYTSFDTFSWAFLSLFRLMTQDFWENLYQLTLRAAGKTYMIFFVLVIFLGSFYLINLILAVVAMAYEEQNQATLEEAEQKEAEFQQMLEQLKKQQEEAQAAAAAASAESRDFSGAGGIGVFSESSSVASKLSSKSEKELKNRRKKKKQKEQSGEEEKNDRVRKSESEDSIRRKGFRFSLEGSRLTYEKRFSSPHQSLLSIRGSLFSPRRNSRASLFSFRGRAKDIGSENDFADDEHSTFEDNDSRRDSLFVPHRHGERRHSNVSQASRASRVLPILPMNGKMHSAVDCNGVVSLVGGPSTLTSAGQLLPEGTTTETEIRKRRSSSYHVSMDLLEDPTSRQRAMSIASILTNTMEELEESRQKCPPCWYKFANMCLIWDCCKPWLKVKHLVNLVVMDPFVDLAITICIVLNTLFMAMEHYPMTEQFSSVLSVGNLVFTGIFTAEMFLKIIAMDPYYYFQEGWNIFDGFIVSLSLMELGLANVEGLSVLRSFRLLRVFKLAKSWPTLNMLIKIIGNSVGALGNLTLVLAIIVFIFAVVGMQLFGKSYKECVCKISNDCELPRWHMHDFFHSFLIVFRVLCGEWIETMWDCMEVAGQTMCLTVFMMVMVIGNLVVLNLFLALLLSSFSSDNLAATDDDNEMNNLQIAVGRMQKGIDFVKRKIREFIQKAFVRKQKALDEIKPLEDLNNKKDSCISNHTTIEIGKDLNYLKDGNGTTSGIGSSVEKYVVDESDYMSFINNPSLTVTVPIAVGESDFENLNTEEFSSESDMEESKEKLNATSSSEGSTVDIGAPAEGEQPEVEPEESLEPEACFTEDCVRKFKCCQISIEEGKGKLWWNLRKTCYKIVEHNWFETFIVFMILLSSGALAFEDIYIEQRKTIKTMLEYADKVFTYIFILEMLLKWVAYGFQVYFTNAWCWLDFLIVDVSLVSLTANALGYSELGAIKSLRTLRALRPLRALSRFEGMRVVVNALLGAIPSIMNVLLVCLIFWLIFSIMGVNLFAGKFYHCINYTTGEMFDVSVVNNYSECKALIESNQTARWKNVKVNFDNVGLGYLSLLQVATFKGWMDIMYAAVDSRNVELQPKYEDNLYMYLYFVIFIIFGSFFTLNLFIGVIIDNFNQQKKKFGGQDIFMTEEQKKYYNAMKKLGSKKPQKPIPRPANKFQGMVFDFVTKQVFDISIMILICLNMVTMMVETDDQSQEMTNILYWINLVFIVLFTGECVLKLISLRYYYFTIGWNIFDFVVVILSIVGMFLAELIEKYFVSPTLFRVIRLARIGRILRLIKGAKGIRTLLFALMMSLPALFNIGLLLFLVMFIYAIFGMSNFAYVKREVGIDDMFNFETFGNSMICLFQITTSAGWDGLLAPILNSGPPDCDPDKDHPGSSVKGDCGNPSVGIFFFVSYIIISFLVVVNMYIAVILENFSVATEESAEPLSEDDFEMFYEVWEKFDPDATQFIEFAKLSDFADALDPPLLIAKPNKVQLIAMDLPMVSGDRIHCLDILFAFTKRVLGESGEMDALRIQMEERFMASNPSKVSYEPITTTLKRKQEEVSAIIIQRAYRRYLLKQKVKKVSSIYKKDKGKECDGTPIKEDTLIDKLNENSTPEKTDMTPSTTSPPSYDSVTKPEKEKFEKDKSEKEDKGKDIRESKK
NaV1.7, sequence (Q15858 whole entry): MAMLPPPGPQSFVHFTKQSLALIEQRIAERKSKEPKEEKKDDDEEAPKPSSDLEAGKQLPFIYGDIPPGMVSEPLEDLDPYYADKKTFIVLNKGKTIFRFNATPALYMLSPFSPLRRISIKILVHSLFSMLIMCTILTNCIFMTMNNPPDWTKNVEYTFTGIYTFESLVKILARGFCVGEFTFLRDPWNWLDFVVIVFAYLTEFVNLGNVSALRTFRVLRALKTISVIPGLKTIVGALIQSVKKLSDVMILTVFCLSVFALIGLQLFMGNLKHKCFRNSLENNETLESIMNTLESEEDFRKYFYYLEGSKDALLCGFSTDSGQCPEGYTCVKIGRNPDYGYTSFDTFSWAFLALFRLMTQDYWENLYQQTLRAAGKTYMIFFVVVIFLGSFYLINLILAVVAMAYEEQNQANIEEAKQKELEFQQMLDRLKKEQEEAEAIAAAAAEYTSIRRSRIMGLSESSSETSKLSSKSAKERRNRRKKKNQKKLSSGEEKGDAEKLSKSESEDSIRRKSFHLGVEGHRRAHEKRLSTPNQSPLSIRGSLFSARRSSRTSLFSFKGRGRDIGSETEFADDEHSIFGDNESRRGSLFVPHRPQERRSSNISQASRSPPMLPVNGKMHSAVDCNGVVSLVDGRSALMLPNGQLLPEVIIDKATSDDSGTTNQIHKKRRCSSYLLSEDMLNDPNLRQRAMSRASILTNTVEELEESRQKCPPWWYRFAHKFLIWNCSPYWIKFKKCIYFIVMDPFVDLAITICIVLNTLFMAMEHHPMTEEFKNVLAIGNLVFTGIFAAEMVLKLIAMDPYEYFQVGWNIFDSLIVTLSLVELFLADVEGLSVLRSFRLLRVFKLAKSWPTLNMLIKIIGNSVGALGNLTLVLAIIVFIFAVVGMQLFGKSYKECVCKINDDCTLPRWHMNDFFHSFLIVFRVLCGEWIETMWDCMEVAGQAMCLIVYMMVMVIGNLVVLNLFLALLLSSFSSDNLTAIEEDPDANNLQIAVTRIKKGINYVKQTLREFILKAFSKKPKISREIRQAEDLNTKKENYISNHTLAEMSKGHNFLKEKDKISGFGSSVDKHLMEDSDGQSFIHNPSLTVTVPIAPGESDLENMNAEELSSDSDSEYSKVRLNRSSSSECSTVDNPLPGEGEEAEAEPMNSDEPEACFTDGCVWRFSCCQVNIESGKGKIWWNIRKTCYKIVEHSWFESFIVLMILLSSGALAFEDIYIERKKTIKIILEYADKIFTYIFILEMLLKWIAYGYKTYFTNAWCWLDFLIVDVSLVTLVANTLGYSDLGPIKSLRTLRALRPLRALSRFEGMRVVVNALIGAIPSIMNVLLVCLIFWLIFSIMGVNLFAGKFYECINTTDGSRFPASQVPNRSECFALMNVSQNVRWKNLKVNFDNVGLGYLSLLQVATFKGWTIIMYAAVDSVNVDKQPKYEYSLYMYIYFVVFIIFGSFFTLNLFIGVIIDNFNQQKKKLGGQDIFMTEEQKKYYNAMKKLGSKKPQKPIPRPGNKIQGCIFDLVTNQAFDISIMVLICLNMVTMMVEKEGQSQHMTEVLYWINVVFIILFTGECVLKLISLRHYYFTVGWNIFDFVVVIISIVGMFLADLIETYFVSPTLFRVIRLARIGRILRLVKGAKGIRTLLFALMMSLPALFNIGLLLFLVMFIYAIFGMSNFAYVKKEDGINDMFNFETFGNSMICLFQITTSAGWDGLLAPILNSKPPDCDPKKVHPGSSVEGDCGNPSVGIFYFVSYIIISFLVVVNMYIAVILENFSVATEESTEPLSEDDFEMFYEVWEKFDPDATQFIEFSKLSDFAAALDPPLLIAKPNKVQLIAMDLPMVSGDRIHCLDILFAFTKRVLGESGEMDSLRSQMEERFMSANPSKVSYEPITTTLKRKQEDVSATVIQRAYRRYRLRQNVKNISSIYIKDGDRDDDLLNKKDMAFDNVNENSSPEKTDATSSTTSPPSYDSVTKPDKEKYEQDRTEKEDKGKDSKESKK

B1: 10A7-BN3 (antibody, V domains shown)
VH: EVQLVESGGGLVQPGGSLRLSCAASGFAFSSYSMSWVRQAPGKGLEWIGSIYYSGSTYYNPSLKSRVTISADTSKNTAYLQMNSLRAEDTAVYYCARNSGFETLDYWGQGTLVTVSS
VL: DIQMTQSPSSLSASVGDRVTITCRASQGISRWLAWYQQKPGKAPNLLIYGASTLQSGVPPRFSGSRSGTDFTLTISSLQPEDFATYYCQQXYTTPPTFGQGTKLEI
modifications: position marked * in QQ*YTTPPT (light chain residue 91): unnatural amino acid (UAA) with azide, conjugated to BN3 (PSB12379-PEG3-DBCO)
notes: also called 10A7 Ab-BN3
In the case of B1, in the experiment with CD73 protein [1], binding was characterised by a dissociation constant (Kd) of 0.888 nM, the off-rate constant (koff) turned out to be 0.000191 s⁻¹ and the kon is 215000 M⁻¹ s⁻¹. Also, in the experiment with CD73 protein [2], the “IC90 of inhibition of CD73 (malachite green phosphate assay)” value (shortened to “IC90 of inhibition of CD73”) was 2.92 nM.

B2: 14E6-PEG3-ASF (antibody, V domains shown)
VH: EVQLVESGGGLVQPGGSLRLSCAASGFTFSNFAMHWVRQAPGKGLEYVSAISGGNGGGTYYADSAKGRFTISADTSKNTAYLQMNSLRAEDTAVYYCAREGNYCLDYWGQGTLVTVSS
VL: B1 VL with G28P, R31D, N45K, L46S, G50D, S52Y, T53N
modifications: position marked * in QQ*YTTPPT (light chain residue 91): unnatural amino acid (UAA) with azide, conjugated to ASF-PEG3-DBCO
Take B2: the “IC50 on HEK293-NaV1.2 cells” value with NaV1.2 came out at 5.02 nM.

B3: 14H4-PEG3-ASF (antibody, V domains shown)
VH: EVQLVESGGGLVQPGGSLRLSCAASGFSFSKFWMHWVRQAPGKGLEWVAFMAHDESNKNYADSVKGRFTISADTSKNTAYLQMNSLRAEDTAVYYCARDKVCNTFDIWGQGTLVTVSS
VL: B1 VL with G28S, R31S, W32D, A34N, N45K, G50R, S52T, T53F, Q55E, P60S
modifications: position marked * in QQ*YTTPPT (light chain residue 91): unnatural amino acid (UAA) with azide, conjugated to ASF-PEG3-DBCO
In the case of B3, the “IC50 on HEK293-NaV1.2 cells” value in the experiment with NaV1.2 was determined as 2.73 nM. For the same molecule, in the experiment with NaV1.7, the “IC50 on HEK293-NaV1.7 cells, by curve fitting” value was over 500 nM.

B4: 10D8-BN3 (antibody, V domains shown)
VH: EVQLVESGGGLVQPGGSLRLSCAASGFTFSTYAIHWVRQAPGKGLEWVSSISGSGGGGGTYYADSVKGRFTISADTSKNTAYLQMNSLRAEDTAVYYCARDRGFLQFDYWGQGTLVTVSS
VL: B1 VL with G28S, R31S, N45K, G50D, A51V, T53N, L54V, S56T, P60S
modifications: position marked * in QQ*YTTPPT (light chain residue 91): unnatural amino acid (UAA) with azide, conjugated to BN3 (PSB12379-PEG3-DBCO)
notes: also called 10D8 Ab-BN3
With B4, in the experiment with CD73 protein [1], the Kd is 1.35 nM, the koff was 0.000275 s⁻¹ and the kon stood at 204000 M⁻¹ s⁻¹. Besides, the “IC90 of inhibition of CD73” value with CD73 protein [2] was over 100 nM.

B5: ABN3-2B-BN3 (antibody, V domains shown)
VH: EVQLVESGGGLVQPGGSLRLSCAASGFTFSSYWMHWVRQAPGKGLEWVSAVSGSGDSTYYADSVKGRFTISADTSKNTAYLQMNSLRAEDTAVYYCAREGDWGLDYWGQGTLVTVSS
VL: B1 VL with S30N, R31N, W32Y, N45K, G50D, T53N, Q55E, S56T, P60S
modifications: not fully specified; position marked * in QQ*YTTPPT (light chain residue 91): unnatural amino acid (UAA) with azide, conjugated to BN3 (PSB12379-PEG3-DBCO)
notes: also called ABN3-2B Ab-BN3; ABN-2B
Turning to B5, in the experiment with CD73 protein [1], the Kd amounted to 3.16 nM, the koff came out at 0.000582 s⁻¹ and the kon amounted to 185000 M⁻¹ s⁻¹.

B6: 10A7-Fab-BN3 (Fab, V domains shown)
VH: B1 VH
VL: B1 VL
modifications: position marked * in QQ*YTTPPT (light chain residue 91): unnatural amino acid (UAA) with azide, conjugated to BN3 (PSB12379-PEG3-DBCO)
In the case of B6, the “IC50 of inhibition of CD73, against that of 10A7-BN3” value in the experiment with CD73 protein [3] is ~0.2 fold of the IC50 of 10A7-BN3.

B7: ABN3-2G-BN3 (antibody, V domains shown)
VH: EVQLVESGGGLVQPGGSLRLSCAASGITFGSYTMSWVRQAPGKGLEWIGTVHYTGKTFYSPSLKSRVTISADTSKNTAYLQMNSLRAEDTAVYYCARGRDFGEPPYVRAFDIWGQGTLVTVSS
VL: DIQMTQSPSSLSASVGDRVTITCQASHDISKYLNWYQQKPGKAPKLLIYDASNLETGVPSRFSGSRSGTDFTLTISSLQPEDFATYYCQQXYTTPPTFGQGTKLEI
modifications: not fully specified; position marked * in QQ*YTTPPT (light chain residue 91): unnatural amino acid (UAA) with azide, conjugated to BN3 (PSB12379-PEG3-DBCO)
notes: also called ABN3-2G Ab-BN3
With B7, in the experiment with CD73 protein [1], the Kd is 0.887 nM, the koff stood at 0.000271 s⁻¹ and the kon was found to be 305000 M⁻¹ s⁻¹. The “IC90 of inhibition of CD73” value with CD73 protein [2] is 25.9 nM.

As a reminder, the Kd is a measure of binding affinity in units of concentration. The low end stands for tighter binding, the high end for weaker binding. As usually defined, the koff is the first-order rate constant of dissociation. The low end stands for slow dissociation, the high end for fast dissociation. Broadly, the kon is the rate constant with which the complex forms. High values mean faster complex formation, low ones slower complex formation.
